Publication PMC8407082, “An Integrative Approach to Determine 3D Protein Structures Using Sparse Paramagnetic NMR Data and Physical Modeling” (Frontiers in Molecular Biosciences, 2021)

Target: T1, calmodulin (UniProt P0DP23 1-149)
T1 construct: calmodulin, printed as 148 residues long; 13C/15N-labelled; The MELD model has 149 residues (with the extension C149); also called CaM; source: expressed in M9 minimal medium with 15NH4Cl and 13C6-glucose, purified as described previously (Liu and Vogel, 2012; Ishida et al., 2016)
Assay: solution NMR (backbone chemical shifts, PRE, RDC) with MELD modelling of the complex's structure; 600 MHz; 1.2-fold excess of peptide mixed with CaM; RDCs in 2 mM bis-Tris pH 7.0, 300 mM KCl, 16 mg/ml Pf1 bacteriophage
Settings: both partners purified

- binding result: binds
B1: smooth muscle myosin light chain kinase peptide (peptide)
peptide: PARRKWQKTGHAVRAIGRLSS
notes: proline left from the Asp-Pro acid cleavage site of the linker GGGGSSDP; Made unlabelled (LB) or 13C/15N-labelled (M9); The N-terminal proline is not seen in the NMR experiments and was left out of the MELD model; also called smMLCK peptide; smMLCKp; not shown: 6xHis, N-terminal, cleaved; KSI (D38A), N-terminal, cleaved
